Experimental findings from US20090031441A1 (NATIONAL UNIVERSITY CORPORATION NAGOYA UNIVERSITY, published 2009) are described below.

Test [1] has as its target T1, RGL3 (Arabidopsis DELLA protein), yeast two-hybrid prey in pGADT7 AD vector (Arabidopsis, UniProt Q9LF53 1-523).
T1 construct: also called AtDELLA
T1 sequence (looked up): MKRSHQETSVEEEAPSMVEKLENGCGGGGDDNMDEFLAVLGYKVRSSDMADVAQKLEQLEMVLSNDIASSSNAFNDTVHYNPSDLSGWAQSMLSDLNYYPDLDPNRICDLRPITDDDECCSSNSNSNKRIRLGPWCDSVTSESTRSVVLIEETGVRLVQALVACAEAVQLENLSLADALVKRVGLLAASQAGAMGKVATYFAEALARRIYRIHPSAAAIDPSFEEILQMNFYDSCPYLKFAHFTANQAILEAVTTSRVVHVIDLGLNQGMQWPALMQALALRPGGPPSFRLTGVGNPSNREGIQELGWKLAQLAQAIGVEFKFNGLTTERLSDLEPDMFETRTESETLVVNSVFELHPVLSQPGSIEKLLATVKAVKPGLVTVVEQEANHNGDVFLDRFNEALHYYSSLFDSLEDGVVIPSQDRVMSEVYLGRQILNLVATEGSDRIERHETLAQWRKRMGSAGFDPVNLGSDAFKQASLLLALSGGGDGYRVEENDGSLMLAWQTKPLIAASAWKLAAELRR
The test is described as follows: yeast two-hybrid system. On the procedure: Arabidopsis has five DELLA proteins (RGA, GAI, RGL1, RGL2, and RGL3; collectively designated AtDELLA; Fleet, C. M., and Sun, T.-P. (2005) Curr. Opin. Plant Biol., 8, 77-85; Dill, A., and Sun, T. (2001) Genetics, 159, 777-785); therefore, there are 15 possible combinations of GID1/DELLA proteins. To verify the positive interactions between AtGID1-AtDELLA, two experiments were conducted using the yeast two hybrid (Y2H) system. In the first experiment (Assay A), a viable colony assay using a defined medium in which only positive clones would survive was carried out. In the second experiment (Assay B), β-galactosidase activity was measured, as reporter gene product of AtGID1-AtDELLA interactions.
BD Matchmaker Two-hybrid System 3 (Clontech, Palo Alto, Calif., USA; now part of Takara Bio) was used in the Y2H experiments. After confirming the PCR products of the AtGID1 genes by sequencing, PCR products were cloned into pGBKT7 DNA-BD shuttle vector to construct bait plasmids. Likewise, the entire coding region of each AtDELLA gene (GAI including EcoRI and XhoI sites; RGA including BamHI and XhoI sites; RGL1 including SmaI and SacI sites; RGL2 including SmaI and ClaI sites; RGL3 including SmaI and XhoI sites on the ends) was cloned into pGADT7 AD vector. The S. cerevisiae AH109 (MATa) strain or Y187 (MATα) strain was used, and DNA-BD and AD vector cassettes were used as negative controls. The details of the method used for the yeast assay are as described in the manufacturer's instructions (Yeast Protocols Handbook #PT3024-1; http://www.clontech.com/). Experiments were carried out four times independently. Similar results were obtained each time.

Test [2] addresses T2, GAI (Arabidopsis DELLA protein), yeast two-hybrid prey in pGADT7 AD vector (Arabidopsis, UniProt Q9LQT8 1-533).
T2 construct: also called AtDELLA
T2 sequence (looked up): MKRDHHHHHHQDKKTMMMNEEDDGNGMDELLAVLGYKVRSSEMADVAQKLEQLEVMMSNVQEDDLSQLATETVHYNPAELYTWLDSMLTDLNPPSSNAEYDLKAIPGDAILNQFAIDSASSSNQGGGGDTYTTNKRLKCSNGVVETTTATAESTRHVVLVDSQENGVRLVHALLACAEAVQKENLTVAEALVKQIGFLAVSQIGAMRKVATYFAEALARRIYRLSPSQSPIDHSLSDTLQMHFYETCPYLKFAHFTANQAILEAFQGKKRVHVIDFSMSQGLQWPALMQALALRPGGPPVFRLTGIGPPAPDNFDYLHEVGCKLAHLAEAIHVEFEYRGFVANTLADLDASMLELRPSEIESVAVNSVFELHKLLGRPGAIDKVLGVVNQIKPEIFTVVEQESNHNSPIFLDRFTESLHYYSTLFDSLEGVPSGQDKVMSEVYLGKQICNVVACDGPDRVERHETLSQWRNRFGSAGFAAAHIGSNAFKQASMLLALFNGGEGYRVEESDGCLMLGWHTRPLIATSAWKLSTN
The test is described as follows: yeast two-hybrid, AtGID1 bait and AtDELLA prey, 10^-5 M GA4 in medium; colony growth (Assay A) and beta-galactosidase activity (Assay B). On the procedure:
Panel A) depicts AtGID1-AtDELLA interaction in the presence of GA in two types of yeast hybrid (Y2H) assays. Each AtGID1 was used as a bait while AtDELLA was a prey. GA₄ (10⁻⁵ M) was added to the medium. The bars indicates β-galactosidase activity when o-nitrophenol-β-D-galactopyranoside was used as a substrate (Assay B). The growth of each transformant in the defined medium for 2 days (Assay A) is shown beneath of each bar graph. The experiment was carried out in quadruplicate. The SD value shown in the figure was determined from three measurements. Panel B) depicts the dose response in AtGID1-RGA interaction in Assay B of Y2H. GA₄ (10⁻⁵ to 10⁻⁹ M) was added to the medium. The experiment was conducted in duplicates. The SD value shown in the figure was determined from three measurements. Panel C) depicts the results of an evaluation of the in vitro GA-binding potency of AtGID1 using AtDELLA. Left panel, 15 minutes after mixing AtGID1c (C), tritiated GA, with an excess amount of non-labeled GA (+) or without non-labeled GA (−). GAI (G) or RGA (R) was added, and then the GA-binding activity in each reaction mixture was measured according to the standard method. Recombinant protein originating from the vector (v) was used as a negative control. The experiment was carried out in duplicates. The SD value was determined from three measurements. Right panel, a profile of Western blotting for recombinant AtDELLA using an antibody to His tag. G, GAI; R, RGA; v, vector; M, molecular weight marker.
Arabidopsis has five DELLA proteins (RGA, GAI, RGL1, RGL2, and RGL3; collectively designated AtDELLA; Fleet, C. M., and Sun, T.-P. (2005) Curr. Opin. Plant Biol., 8, 77-85; Dill, A., and Sun, T. (2001) Genetics, 159, 777-785); therefore, there are 15 possible combinations of GID1/DELLA proteins. To verify the positive interactions between AtGID1-AtDELLA, two experiments were conducted using the yeast two hybrid (Y2H) system. […] In the second experiment (Assay B), β-galactosidase activity was measured, as reporter gene product of AtGID1-AtDELLA interactions. […]

B1: AtGID1a (At3g05120), yeast two-hybrid bait in pGBKT7 DNA-BD vector (receptor, not shown: small tags and cut ends)
chain: MAASDEVNLIESRTVVPLNTWVLISNFKVAYNILRRPDGTFNRHLAEYLDRKVTANANPVDGVFSFDVLIDRRINLLSRVYRPAYADQEQPPSILDLEKPVDGDIVPVILFFHGGSFAHSSANSAIYDTLCRRLVGLCKCVVVSVNYRRAPENPYPCAYDDGWIALNWVNSRSWLKSKKDSKVHIFLAGDSSGGNIAHNVALRAGESGIDVLGNILLNPMFGGNERTESEKSLDGKYFVTVRDRDWYWKAFLPEGEDREHPACNPFSPRGKSLEGVSFPKSLVVVAGLDLIRDWQLAYAEGLKKAGQEVKLMHLEKATVGFYLLPNNNHFHNVMDEISAFVNAEC
notes: Bait fusion for the Y2H assays (BD Matchmaker Two-hybrid System 3); also called Arabidopsis GID1
Consider B1, for which the binding result in test [1] and in test [2] was “binds” in each case.
